From PMC12402098, “YTHDF3 recognizes DNA N6-methyladenine and recruits ALKBH1 for 6mA removal from genomic DNA” (The EMBO Journal, 2025)
Blank lines part the entries; values can stand above or below the binder they belong to.

Tests used:
YTHDF3-His = target: T1, YTHDF3-His (UniProt Q7Z739 1-585); assay: native gel or EMSA; recombinant ALKBH1 and increasing recombinant YTHDF3 with biotin-labeled 6mA-dsDNA oligos, 30 °C 20 min, 2% glutaraldehyde on ice 15 min, 5% nondenaturing gel; conditions: both partners purified
T1 construct: YTHDF3 inserted into pET 26b vector; pET26b would give a C-terminal His tag (surmise); also called recombinant YTHDF3; wild-type YTHDF3; source: E. coli BL21 (DE3), purified (His-tag protein purification kit); also coexpressed with ALKBH1 in E. coli, in lysate
T1 sequence (looked up): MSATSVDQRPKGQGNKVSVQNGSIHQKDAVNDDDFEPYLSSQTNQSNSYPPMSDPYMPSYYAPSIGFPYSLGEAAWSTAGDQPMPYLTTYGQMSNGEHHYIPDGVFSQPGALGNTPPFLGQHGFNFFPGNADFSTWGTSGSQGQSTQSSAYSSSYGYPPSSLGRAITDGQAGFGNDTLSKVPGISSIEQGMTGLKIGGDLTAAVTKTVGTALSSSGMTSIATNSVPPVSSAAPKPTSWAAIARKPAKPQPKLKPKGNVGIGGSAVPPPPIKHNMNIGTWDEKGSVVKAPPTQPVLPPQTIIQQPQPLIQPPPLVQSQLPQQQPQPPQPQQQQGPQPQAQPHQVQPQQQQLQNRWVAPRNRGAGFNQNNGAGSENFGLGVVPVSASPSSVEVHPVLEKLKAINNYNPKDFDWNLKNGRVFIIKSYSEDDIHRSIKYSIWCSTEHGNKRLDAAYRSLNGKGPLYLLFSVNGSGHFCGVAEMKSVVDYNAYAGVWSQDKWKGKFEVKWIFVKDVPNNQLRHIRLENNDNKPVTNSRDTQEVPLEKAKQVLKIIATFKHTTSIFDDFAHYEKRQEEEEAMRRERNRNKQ

[1] = target: T2, YTHDF3-His MT6mA (W438R/W492R) (UniProt Q7Z739 1-585, W438R | W492R); assay: pull-down; GST pull-down: recombinant YTHDF3-His proteins incubated with recombinant ALKBH1-GST protein beads at 4 °C for 1 h, washed three times, eluted with reduced L-glutathione, western blot; conditions: both partners purified
T2 construct: YTHDF3 with W438R/W492R in the YTH domain, in pET 26b vector; also called YTHDF3-MT6mA-His; YTHDF3 W438R/W492R mutant; source: E. coli BL21 (DE3), purified (His-tag protein purification kit)
T2 sequence (looked up): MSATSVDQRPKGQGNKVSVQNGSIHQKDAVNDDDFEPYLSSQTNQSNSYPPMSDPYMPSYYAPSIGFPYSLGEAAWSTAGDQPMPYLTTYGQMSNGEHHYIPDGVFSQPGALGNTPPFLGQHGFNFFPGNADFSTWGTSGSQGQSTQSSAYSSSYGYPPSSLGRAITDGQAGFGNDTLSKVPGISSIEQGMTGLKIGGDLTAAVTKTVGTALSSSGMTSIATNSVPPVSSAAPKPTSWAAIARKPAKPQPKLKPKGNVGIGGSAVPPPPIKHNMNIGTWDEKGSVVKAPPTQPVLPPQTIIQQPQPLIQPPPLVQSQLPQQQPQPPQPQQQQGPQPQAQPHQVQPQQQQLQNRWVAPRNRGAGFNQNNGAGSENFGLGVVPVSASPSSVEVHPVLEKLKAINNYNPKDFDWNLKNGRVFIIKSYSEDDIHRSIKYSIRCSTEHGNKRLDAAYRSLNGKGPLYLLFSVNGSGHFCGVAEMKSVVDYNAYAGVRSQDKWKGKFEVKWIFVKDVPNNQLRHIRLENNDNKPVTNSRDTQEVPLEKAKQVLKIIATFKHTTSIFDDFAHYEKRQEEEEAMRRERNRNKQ

YTHDF3 wild type [2] = target: T3, YTHDF3 wild type (UniProt Q7Z739 1-585); assay: EMSA; SPR: 1x HBS-EP+, biotin-DNA on SA chip (~500 RU), 30 ul/min; EMSA: LightShift kit, 30 C 20 min, then 2% glutaraldehyde on ice 15 min, 5% native gel; pull-down:; conditions: protein: recombinant, tags: His
T3 sequence: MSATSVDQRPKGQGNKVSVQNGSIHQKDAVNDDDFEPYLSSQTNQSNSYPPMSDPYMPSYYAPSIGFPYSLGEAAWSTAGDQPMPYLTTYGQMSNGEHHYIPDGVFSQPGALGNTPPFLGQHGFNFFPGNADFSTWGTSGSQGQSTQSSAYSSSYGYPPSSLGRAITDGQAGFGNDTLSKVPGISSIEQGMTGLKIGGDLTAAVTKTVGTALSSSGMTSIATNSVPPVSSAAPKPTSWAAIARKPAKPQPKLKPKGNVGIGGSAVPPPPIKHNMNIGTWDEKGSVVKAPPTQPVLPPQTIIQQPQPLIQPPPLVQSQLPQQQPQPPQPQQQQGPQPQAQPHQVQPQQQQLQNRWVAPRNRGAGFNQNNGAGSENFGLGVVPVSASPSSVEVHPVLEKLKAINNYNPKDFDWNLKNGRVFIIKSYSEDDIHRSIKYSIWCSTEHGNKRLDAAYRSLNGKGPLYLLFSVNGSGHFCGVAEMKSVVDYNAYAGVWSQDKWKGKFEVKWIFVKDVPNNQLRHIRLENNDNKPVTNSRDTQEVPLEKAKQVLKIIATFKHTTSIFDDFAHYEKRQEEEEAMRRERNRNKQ

YTHDF3 wild type [3] = target: T3, YTHDF3 wild type; assay: EMSA, pull-down; SPR: 1x HBS-EP+, biotin-DNA on SA chip (~500 RU), 30 ul/min; EMSA: LightShift kit, 30 C 20 min, then 2% glutaraldehyde on ice 15 min, 5% native gel; pull-down:; conditions: protein: recombinant, tags: His
ALKBH1;YTHDF3 wild type = target: T4, ALKBH1;YTHDF3 wild type (Homo sapiens?;Homo sapiens?, UniProt Q13686;Q7Z739 1-389;1-585, |); assay: pull-down; YTHDF3 increases ALKBH1 binding; SPR: 1x HBS-EP+, biotin-DNA on SA chip (~500 RU), 30 ul/min; EMSA: LightShift kit, 30 C 20 min, then 2% glutaraldehyde on ice 15 min, 5% native gel; pull-down:; conditions: protein: recombinant;recombinant
T4 sequence 1: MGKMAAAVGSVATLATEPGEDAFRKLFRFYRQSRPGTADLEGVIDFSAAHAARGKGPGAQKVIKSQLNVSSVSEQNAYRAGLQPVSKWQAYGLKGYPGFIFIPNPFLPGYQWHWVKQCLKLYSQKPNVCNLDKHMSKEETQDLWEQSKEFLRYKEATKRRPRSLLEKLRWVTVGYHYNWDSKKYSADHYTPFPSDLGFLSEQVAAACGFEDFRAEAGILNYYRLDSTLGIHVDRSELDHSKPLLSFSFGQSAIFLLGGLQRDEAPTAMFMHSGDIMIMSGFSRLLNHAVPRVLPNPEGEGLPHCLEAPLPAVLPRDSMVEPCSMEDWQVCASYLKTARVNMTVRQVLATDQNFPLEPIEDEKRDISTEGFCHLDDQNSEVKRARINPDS
T4 sequence 2: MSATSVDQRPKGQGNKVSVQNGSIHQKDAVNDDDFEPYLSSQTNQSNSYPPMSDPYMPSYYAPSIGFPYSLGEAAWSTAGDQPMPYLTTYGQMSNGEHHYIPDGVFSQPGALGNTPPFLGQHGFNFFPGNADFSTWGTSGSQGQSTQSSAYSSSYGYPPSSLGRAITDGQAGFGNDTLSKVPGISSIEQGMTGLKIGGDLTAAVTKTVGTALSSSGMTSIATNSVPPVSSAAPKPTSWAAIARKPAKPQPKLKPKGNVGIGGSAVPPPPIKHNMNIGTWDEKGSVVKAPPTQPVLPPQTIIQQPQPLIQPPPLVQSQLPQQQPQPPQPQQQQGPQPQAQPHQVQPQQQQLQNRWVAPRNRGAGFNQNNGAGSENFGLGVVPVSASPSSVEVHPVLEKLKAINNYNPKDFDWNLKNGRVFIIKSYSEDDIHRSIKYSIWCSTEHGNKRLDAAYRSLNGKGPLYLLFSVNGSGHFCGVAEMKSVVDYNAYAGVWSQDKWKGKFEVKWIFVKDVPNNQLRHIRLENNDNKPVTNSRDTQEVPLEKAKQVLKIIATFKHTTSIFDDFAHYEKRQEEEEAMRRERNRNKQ

[4] = label: 3' biotin strand 1, duplex with bulge of unpaired nt in strand 1 around 6mA
[5] = label: 3' biotin strand 1, duplex with internal mismatch bubble around 6mA

binding result (YTHDF3-His): binds | binding result [1]: binds
B1: ALKBH1-GST (enzyme, UniProt Q13686 1-389, looked up)
chain: MGKMAAAVGSVATLATEPGEDAFRKLFRFYRQSRPGTADLEGVIDFSAAHAARGKGPGAQKVIKSQLNVSSVSEQNAYRAGLQPVSKWQAYGLKGYPGFIFIPNPFLPGYQWHWVKQCLKLYSQKPNVCNLDKHMSKEETQDLWEQSKEFLRYKEATKRRPRSLLEKLRWVTVGYHYNWDSKKYSADHYTPFPSDLGFLSEQVAAACGFEDFRAEAGILNYYRLDSTLGIHVDRSELDHSKPLLSFSFGQSAIFLLGGLQRDEAPTAMFMHSGDIMIMSGFSRLLNHAVPRVLPNPEGEGLPHCLEAPLPAVLPRDSMVEPCSMEDWQVCASYLKTARVNMTVRQVLATDQNFPLEPIEDEKRDISTEGFCHLDDQNSEVKRARINPDS
notes: ALKBH1 inserted into pGEX vector; it would add GST at the N-terminus (surmise). 'Recombinant ALKBH1' of EMSA, DNA pull-down and demethylase assays may be this protein or ALKBH1-His; also called recombinant ALKBH1; A1; source: E. coli BL21 (DE3), purified (glutathione Sepharose; on beads or eluted with reduced L-glutathione)

Binder: CCCGGUUCGAUUCCCGG (ssRNA, N1-methyladenosine at A10) [tRNA-m1A-oligo]
binding result (YTHDF3 wild type [2]; label: 3' biotin): no binding

B2: Bulge-6mA (mixed)
DNA 1: AACTTCGTGCAGGCATGGGATCTTGTCTACT
DNA 2: AGTAGACACATGCCTGCACGAAGTT
modifications: N6-methyl-dA at A20 of strand 1
binding result (YTHDF3 wild type [3]; [4]): binds | binding result (ALKBH1;YTHDF3 wild type; [4]): binds

B3: Bubble-6mA (mixed)
DNA 1: AACTTCGTGCAGGCATGGGATCTTGTCTACT
DNA 2: AGTAGACAGTCGATCATGCCTGCACGAAGTT
modifications: N6-methyl-dA at A20 of strand 1
binding result (YTHDF3 wild type [3]; [5]): binds | binding result (ALKBH1;YTHDF3 wild type; [5]): binds

Binder: AACTTCGTGCAGGCATGGGATCTTGTCTACT (ssDNA, N6-methyl-dA at A20) [ss-6mA]
binding result (YTHDF3 wild type [3]; label: 3' biotin): binds | binding result (ALKBH1;YTHDF3 wild type; label: 3' biotin): binds

Binder: CGUCUCGGACUCGGACUGCU (ssRNA, N6-methyladenosine at A9) [ss-m6A-oligo]
binding result (YTHDF3 wild type [2]; label: 5' biotin): binds
